Results reported in patent US20100150939A1.

How the values were obtained:
[1] = target: 6 activating periplasm out of 27 periplasm tested for ADAM10
[2] = target: 5 inhibiting periplasm out of 27 periplasm tested for ADAM10
[3] = target: 7 inhibiting periplasm out of 31 periplasm tested for ADAM9
[4] = target: 9 activating periplasm out of 31 periplasm tested for ADAM9
[5] = target: recombinant human ADAM10 (amino residues 18-672, Cat. No 936-AD) (human) (UniProt O14672)

| Binder | Percent activity compared to no periplasm (50x excess) [5] [percent] | other results |
| --- | --- | --- |
| recombinant human ADAM10 (amino residues 18-672, Cat. No 936-AD) (protein) GGQYGNPLNKYIRHYEGLSYNVDSLHQKHQRAKRAVSHEDQFLRLDFHAHGRHFNLRMKRDTSLFSDEFKVETSNKVLDYDTSHIYTGHIYGEEGSFSHGSVIDGRFEGFIQTRGGTFYVEPAERYIKDRTLPFHSVIYHEDDINYPHKYGPQGGCADHSVFERMRKYQMTGVEEVTQIPQEEHAANGPELLRKKRTTSAEKNTCQLYIQTDHLFFKYYGTREAVIAQISSHVKAIDTIYQTTDFSGIRNISFMVKRIRINTTADEKDPTNPFRFPNIGVEKFLELNSEQNHDDYCLAYVFTDRDFDDGVLGLAWVGAPSGSSGGICEKSKLYSDGKKKSLNTGIITVQNYGSHVPPKVSHITFAHEVGHNFGSPHDSGTECTPGESKNLGQKENGNYIMYARATSGDKLNNNKFSLCSIRNISQVLEKKRNNCFVESGQPICGNGMVEQGEECDCGYSDQCKDECCFDANQPEGRKCKLKPGKQCSPSQGPCCTAQCAFKSKSEKCRDDSDCAREGICNGFTALCPASDPKPNFTDCNRHTQVCINGQCAGSICEKYGLEECTCASSDGKDDKELCHVCCMKKMDPSTCASTGSVQWSRHFSGRTITLQPGSPCNDFRGYCDVFMRCRLVDADGPLARLKKAIFSPELYENIAE | – | ADAM protease assay, fluorogenic peptide substrate ES003, periplasms containing Nanobodies [1]: 6 activated significantly (more than 200% initial activity); ADAM protease assay, fluorogenic peptide substrate ES003, periplasms containing Nanobodies [2]: 5 inhibited significantly (less than 40% residual activity) |
| recombinant human ADAM9 (amino residues 1-697, R&D Systems, Cat. No. 939-AD) (protein) AARPGFQQTSHLSSYEIITPWRLTRERREAPRPYSKQVSYVIQAEGKEHIIHLERNKDLLPEDFVVYTYNKEGTLITDHPNIQNHCHYRGYVEGVHNSSIALSDCFGLRGLLHLENASYGIEPLQNSSHFEHIIYRMDDVYKEPLKCGVSNKDIEKETAKDEEEEPPSMTQLLRRRRAVLPQTRYVELFIVVDKERYDMMGRNQTAVREEMILLANYLDSMYIMLNIRIVLVGLEIWTNGNLINIVGGAGDVLGNFVQWREKFLITRRRHDSAQLVLKKGFGGTAGMAFVGTVCSRSHAGGINVFGQITVETFASIVAHELGHNLGMNHDDGRDCSCGAKSCIMNSGASGSRNFSSCSAEDFEKLTLNKGGNCLLNIPKPDEAYSAPSCGNKLVDAGEECDCGTPKECELDPCCEGSTCKLKSFAECAYGDCCKDCRFLPGGTLCRGKTSECDVPEYCNGSSQFCQPDVFIQNGYPCQNNKAYCYNGMCQYYDAQCQVIFGSKAKAAPKDCFIEVNSKGDRFGNCGFSGNEYKKCATGNALCGKLQCENVQEIPVFGIVPAIIQTPSRGTKCWGVDFQLGSDVPDPGMVNEGTKCGAGKICRNFQCVDASVLNYDCDVQKKCHGHGVCNSNKNCHCENGWAPPNCETKGYGGSVDSGPTYNEMNTALRD | – | ADAM protease assay, fluorogenic peptide substrate ES003, periplasms containing Nanobodies [3]: 7 showed significant inhibition; ADAM protease assay, fluorogenic peptide substrate ES003, periplasms containing Nanobodies [4]: 9 were significantly activating |
| Nanobody 39-B1 (VHH) VHH: EVQLVESGGGLVQAGGSLRLSCARSGRISNINIMAWYRQAPGKTRDMVAAIIGDSTNYADSVKGRFTISRDNAKNTVYLHMNRLKPEDTGVYYCKISGVDWGQGTQVTVSS | 67.1 | – |
| Nanobody 39-D8, E8 (VHH) VHH: EVQLVESGGGLVRARGSLRLSCAASGGTFSRYAMGWFRQAPGKEREFVAAISRSGGNTYFTESVKGRFTMSRDNAKNTVYLQMNSLKPEDTAVYYCAARSAAVYTTTVYLVDFEYNYWGQGTQVTVSS | 76.4 | – |
| Nanobody 39-D1 (VHH) VHH: KVQLVESGGGLVQAGGSLRLSCAASGNIFINNAVGWYRQAPGKQREMVAAMLSGGSTNYADSVKGRFTISRDNAKNTVYLQMNSLKPEDTAVYYCNVQVNGTWARWGQGTQVTVSS | 84.6 | – |
| Nanobody 33-D1 (VHH) VHH: EVQLVESGGGLVQAGDSLRLSCAATGRTFSSDAMGWFRQAPGKERAFVAGINYNSVYRYYTDSVEGRFTISRDNAKNTVYLQMNSLKPEDTAVYYCAADSDYYSLIGGRPVNYWGQGTQVTVSS | 85.6 | – |
| Nanobody 33-A1 (VHH) VHH: EVQLVESGGGLVQAGGSLRLSCAASGDTFSRYSMGWFRQAPGKEREFVVYITRSGRTTYYQDSVKGRFTISRDNAKNTVYLQMNSLKPEDTAVYYCAAMRSGNVRYPERYDYWGQGTQVTVSS | 86.5 | – |
| Nanobody 39-F1 (VHH) VHH: EVQLVESGGGLVQAGGSLRLSCAASERIFSTYFMGWFRQAPGKEREFVAFISGNGGSTDYADSVKGRFAISRDNVKNTLYLQMSSLKPDDTAVYYCAVAGRQIKSTWGYWGQGTQVTVSS | 144 | – |
| Nanobody 32-E1, E6, 39-A2 (VHH) VHH: EVQLVESGGGLVQAGGSLRLSCAASERIFSTYFMGWFRQAPGKEREFVAFISGNGGSTDYADSVKGRFAISRDNVKNTLYLQMSSLKPDDTAVYYCAVAGRQIKSTWDYWGQGTQVTVSS | 163 | – |
| Nanobody 39-C8 (VHH) VHH: EMQLVESGGGLVQTGGSLRLSCAASGRTFTSYCVGWWRQAPGKERDVVAAITRGSNSTDYVDSVKGRFTISRDNAENTVYLQMNSLKPEDTAVYYCAADINCRNLYTGRPEYWGQGTQVTVSS | 194 | – |
